# Patent US20190256612A1 (NEW YORK UNIVERSITY, published 2019)
# B1: anti-β-sheet conformational monoclonal antibody (aβComAb) GW-23B7 (antibody)
# heavy: EVQLQQSVAELVRPGASVKLSCTASGFNIKNTYMHWVKQRPEQGLEWIGRIDPANGNTKYAPKFQGKATITADTSSNTAYLQLSSLTSEDTAIYYCARGSFYAMDYWGQGTSVTVSSESQSFPNVFPLVSCESPLSDKNLVAMGCLARDFLPSTISFTWNYQNNTEVIQGIRTFPTLRTGGKYLATSQVLLSPKSILEGSDEYLVCKIHYGGKNRDLHVPIPAVAEMNPNVNVFVPPRDGFSGPAPRKSKLICEATNFTPKPITVSWLKDGKLVESGFTTDPVTIENKGSTPQTYKVISTLTISEIDWLNLNVYTCRVDHRGLTFLKNVSSTCAASPSTDILTFTIPPSFADIFLSKSANLTCLVSNLATYETLNISWASQSGEPLETKIKIMESHPNGTFSAKGVASVCVEDWNNRKEFVCTVTHRDLPSPQKKFISKPNEVHKHPPAVYLLPPAREQLNLRESATVTCLVKGFSPADISVQWLQRGQLLPQEKYVTSAPMPEPGAPGFYFTHSILTVTEEEWNSGETYTCVVGHEALPHLVTERTVDKSTGKPTLYNVSLIMSDTGGTCY
# light: DVQITQSPSYLAASPGETITINCRASKSINKYLAWYQEKPGKTNKLLIYSGSTLQSGIPSRFSGSGSGTDFTLTISSLEPEDFAMYHCQQHNEYPWTFGGGTKLEIKRADAAPTVSIFPPSSEQLTSGGASVVCFLNNFYPRDINVKWKIDGSERQNGVLNSWTDQDSKDSTYSMSSTLTLTKDEYERHNSYTCEATHKTSTSPIVKSFNRNEC
# Experiments:
# Aβ1-40 = target: T1, Aβ1-40; assay: immunoblot after SDS-PAGE, antigen on nitrocellulose, anti-mouse IgM detection
# T1 construct: also called Aβ1-40 as loaded on the gel (not polymerized)
# Aβ40p = target: T2, Aβ40p (Covalently polymerized with glutaraldehyde into stable oligomers. The cross-links between copies cannot be carried by the letters, so only the monomer unit is given.); assay: as above
# T2 construct: also called Aβ1-40 polymerized; Aβ1-40 polymerized with glutaraldehyde
# [1] = target: T3, glutaraldehyde polymerized Aβ1-42 (oligomeric Aβ1-42) (UniProt P05067 672-713); assay: SPR, polymerized Aβ1-42 immobilised, antibody injected
# T3 construct: domain: Aβ1-42
binder,measurement,setting,value
B1,binding result,Aβ1-40,binds
same,binding result,Aβ40p,binds
same,Kd,[1],14 nM
